# From PMC7175333
# What was measured:
# [1] = target: DLnano_LS_GT8 (DNA‐launched lumazine synthase nanoparticle decorated with eOD‐GT8, produced in vivo) (Aquifex aeolicus); experiment: native gel or EMSA; pseudo-native PAGE (3-8% Tris-acetate gel, LDS buffer at room temperature, no boiling) of mouse muscle homogenates 4 d.p.i., blotted with VRC01; SEC-purified recombinant standards alongside
# [2] = target: LS_HA_NC99 (lumazine synthase nanoparticle displaying the receptor binding domain of the head of influenza hemagglutinin, H1N1 A/New Caledonia/20/1999) (Aquifex aeolicus | influenza A virus H1N1 A/New Caledonia/20/1999); experiment: SEC + SEC-MALS + other: negative stain electron microscopy
Substance,stoichiometry N [1],stoichiometry N [2]
"DLnano_LS_GT8 (DNA‐launched lumazine synthase nanoparticle decorated with eOD‐GT8, produced in vivo)",60,
"LS_HA_NC99 (lumazine synthase nanoparticle displaying the receptor binding domain of the head of influenza hemagglutinin, H1N1 A/New Caledonia/20/1999)",,60
